The values that follow come from US20030032595A1.

The assay has as its target Kv1.3 of rat L6 skeletal muscle cells (rat) (UniProt P15384). Description: cell-based or functional assay.

Sequence of Kv1.3 of rat L6 skeletal muscle cells (rat) (P15384 whole entry): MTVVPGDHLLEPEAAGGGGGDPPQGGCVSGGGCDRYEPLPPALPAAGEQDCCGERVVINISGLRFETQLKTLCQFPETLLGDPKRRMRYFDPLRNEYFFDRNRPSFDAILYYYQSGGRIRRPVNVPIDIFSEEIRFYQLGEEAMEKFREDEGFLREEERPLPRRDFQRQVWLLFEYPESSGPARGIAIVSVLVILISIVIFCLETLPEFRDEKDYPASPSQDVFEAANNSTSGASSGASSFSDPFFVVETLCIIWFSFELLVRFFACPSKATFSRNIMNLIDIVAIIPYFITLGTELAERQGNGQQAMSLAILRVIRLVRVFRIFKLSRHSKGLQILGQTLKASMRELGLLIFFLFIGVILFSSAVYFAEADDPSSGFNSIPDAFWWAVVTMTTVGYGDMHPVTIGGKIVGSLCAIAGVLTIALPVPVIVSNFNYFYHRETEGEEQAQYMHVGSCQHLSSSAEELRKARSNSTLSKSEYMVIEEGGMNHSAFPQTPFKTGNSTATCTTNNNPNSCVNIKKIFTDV

“margatoxin (from UniProt P40755 1-39) (peptide)”: the concentration necessary for 1/2 maximal increase in glucose uptake (L6 cells) was 53 nM.
